Laboratory results reported in the supplement of paper PMC10899765.

test system: MCF10A; experiment: one-nucleolus phenotype percent effect (relative to siNT 0% and siNOL11 100%); higher = more cells with one nucleolus (ribosome biogenesis inhibition); details: 20 nM; 72 h
Procedure: (§1)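 After 72 h, cells were fixed and stained with Hoechst and anti-fibrillarin, and nucleoli per nucleus were counted with CellProfiler. Values are plate-adjusted percent effect for the one-nucleolus and 5+ nucleoli phenotypes, normalised to siNT (0%) and to the positive controls siNOL11 or siKIF11 (100%), as the mean of biological triplicates. Percent viability is the nuclei count relative to siNT.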

| Sequence | one-nucleolus phenotype percent effect |
| --- | --- |
| UUGGGUUUUCUCUUCAAUCCAG [hsa-miR-6839-3p] | 14.2% |
| UAAAGUAAAUAUGCACCAAAA [hsa-miR-559] | -21.4% |
| UCUGGGUGCAGUGGGGGUU [hsa-miR-6776-5p] | 24.4% |
| GUGAAGGCCCGGCGGAGA [hsa-miR-6126] | -11.8% |
| UCUGCAAGUGUCAGAGGCGAGG [hsa-miR-2276] | -15.8% |
| AAAAGUAAUUGUGGUUUUGGCC [hsa-miR-548b-5p] | -24.3% |
| CCAGCCACGGACUGAGAGUGCAU [hsa-miR-4691-3p] | -11.4% |
| ACCCUUUUUCUCUUUCCCAG [hsa-miR-6832-3p] | -12.4% |
| UGGGGGCUGGAUGGGGUAGAGU [hsa-miR-6846-5p] | 7.84% |
| UGCCUACUGAGCUGAUAUCAGU [hsa-miR-24-1-5p] | 3.46% |
| UACAAGUCAGGAGCUGAAGCAG [hsa-miR-6882-5p] | -8.28% |
| UGGGAGGGGAGAGGCAGCAAGCA [hsa-miR-4728-5p] | 46% |
| ACCCCUCGUUUCUUCCCCCAG [hsa-miR-6795-3p] | -18.5% |
| CACGCUCAUGCACACACCCACA [hsa-miR-574-3p] | -8.15% |
| UGGGGCGGAGCUUCCGGAGGCC [hsa-miR-3180-3p] | 8% |
| UAUUGCACUCGUCCCGGCCUCC [hsa-miR-92b-3p] | -7.61% |
| GCCUGGAGCUACUCCACCAUCUC [hsa-miR-4254] | 7% |
| UUGUUCUCAAACUGGCUGUCAGA [hsa-miR-7156-5p] | -16.5% |
| UAGAGAGGGGAAGGAUGUGAUGU [hsa-miR-6758-5p] | 12.9% |
| CUGCAAAGGGAAGCCCUUUC [hsa-miR-527] | 46.6% |
| GAAGUUGUUCGUGGUGGAUUCG [hsa-miR-382-5p] | 27.9% |
| GACAGAGUGCCACUUACUGAA [hsa-miR-4797-5p] | 41.8% |
| ACAUCCUGCUCCACAGGGCAGAGG [hsa-miR-4793-5p] | -10.7% |
| UCUGUGCUACUGGAUGAAGAGU [hsa-miR-7157-3p] | -22.7% |
| CUGCCCUAGUCUAGCUGAAGCU [hsa-miR-3157-3p] | -21.2% |
| GCUGGUUUCAUAUGGUGGUUUAGA [hsa-miR-29b-1-5p] | -17.6% |
| AGGGGGGCACUGCGCAAGCAAAGCC [hsa-miR-6885-5p] | 16.6% |
| GAACGCCUGUUCUUGCCAGGUGG [hsa-miR-614] | -10.6% |
| ACUGGCAGAACACUGAAGCAGC [hsa-miR-6868-5p] | 34.1% |
| ACCCUCGUCAGGUCCCCGGGG [hsa-miR-4655-3p] | -5.11% |

test system: MCF10A; experiment: 5+ nucleoli phenotype percent effect (relative to siNT 0% and siKIF11 100%); higher = more cells with five or more nucleoli; details: 20 nM; 72 h
Procedure: as §1

| Sequence | 5+ nucleoli phenotype percent effect |
| --- | --- |
| UAUAUGGACUUUUCUGAUACAAUG [hsa-miR-8076] | 44.8% |
| ACUGGACUUGGUGUCAGAUGG [hsa-miR-378h] | 41% |
| UAUACAAGGGCAGACUCUCUCU [hsa-miR-300] | -6.47% |
| UGAGGUAGUAGGUUGUAUGGUU [hsa-let-7c] | 56.3% |
| CAAAAACUGCAGUUACUUUUGU [hsa-miR-548am-3p] | 42.5% |
| UCUUCUUCCUUUGCAGAGUUGA [hsa-miR-4778-3p] | 1.95% |
| CAAGGCCAAAGGAAGAGAACAG [hsa-miR-4753-5p] | -19.1% |
| AGGCGCACCCGACCACAUGC [hsa-miR-6722-5p] | -18.7% |
| UAAAGAACUCUUAAAACCCAAU [hsa-miR-3133] | 48.7% |
| AGGCUGGGCUGGGACGGA [hsa-miR-4505] | 21.9% |
| AGGAAAUGAGGCUGGCUAGGAGC [hsa-miR-5093] | 0.0169% |
| UAUUCAUUUAUCCCCAGCCUACA [hsa-miR-664a-3p] | 26% |
| UUUAGUGUGAUAAUGGCGUUUGA [hsa-miR-3591-5p] | 0.56% |
| UUUCAAGCCAGGGGGCGUUUUUC [hsa-miR-498] | 23.7% |
| CGGGAGCUGGGGUCUGCAGGU [hsa-miR-6726-5p] | 58.1% |
| AUCAUGUAUGAUACUGCAAACA [hsa-miR-6516-3p] | -35% |
| GAAAGCGCUUCUCUUUAGAGG [hsa-miR-518f-3p] | -8.13% |
| UGGGUAGAGAAGGAGCUCAGAGGA [hsa-miR-3132] | 62.9% |
| AUGAGCGACUGUGCCUGACC [hsa-miR-5708] | -33% |
| AUCUGUCUCGAUUGUUUCCAG [hsa-miR-6888-3p] | 6.29% |

| Sequence | 5+ nucleoli phenotype percent effect |
| --- | --- |
| UUGGAGGGUGUGGAAGACAUC [hsa-miR-6515-5p] | -18.5% |
| UCACGCGGAGAGAUGGCUUUG [hsa-miR-3186-3p] | -13.4% |
| CCUGCAGAGAGGAAGCCCUUC [hsa-miR-3158-5p] | -45.3% |
| CCAAUUACCACUUCUUU [hsa-miR-4275] | 23.8% |
| UGCCCCAACAAGGAAGGACAAG [hsa-miR-5699-5p] | 43.5% |
| GUAGAGGAGAUGGCGCAGGG [hsa-miR-877-5p] | 10.3% |
| CACCUCUCCUGGCAUCGCCCC [hsa-miR-6800-3p] | 21.6% |
| AAAGAUGGACAAUUGGCUAAAU [hsa-miR-4662b] | -25.7% |
| AAAAGUGAUUGCAGUGUUUG [hsa-miR-548ah-5p] | 17.4% |
| UUGGGUUUUCUCUUCAAUCCAG [hsa-miR-6839-3p] | -18.2% |
| UAAAGUAAAUAUGCACCAAAA [hsa-miR-559] | 24% |
| UCUGGGUGCAGUGGGGGUU [hsa-miR-6776-5p] | -32.7% |
| GUGAAGGCCCGGCGGAGA [hsa-miR-6126] | -28.6% |
| UCUGCAAGUGUCAGAGGCGAGG [hsa-miR-2276] | 38.4% |
| AAAAGUAAUUGUGGUUUUGGCC [hsa-miR-548b-5p] | 36.5% |
| CCAGCCACGGACUGAGAGUGCAU [hsa-miR-4691-3p] | 26.3% |
| ACCCUUUUUCUCUUUCCCAG [hsa-miR-6832-3p] | 38.2% |
| UGGGGGCUGGAUGGGGUAGAGU [hsa-miR-6846-5p] | -0.876% |
| UGCCUACUGAGCUGAUAUCAGU [hsa-miR-24-1-5p] | -18% |
| UACAAGUCAGGAGCUGAAGCAG [hsa-miR-6882-5p] | 1.17% |

| Sequence | 5+ nucleoli phenotype percent effect |
| --- | --- |
| UGGGAGGGGAGAGGCAGCAAGCA [hsa-miR-4728-5p] | -29.9% |
| ACCCCUCGUUUCUUCCCCCAG [hsa-miR-6795-3p] | 14.8% |
| CACGCUCAUGCACACACCCACA [hsa-miR-574-3p] | -3.95% |
| UGGGGCGGAGCUUCCGGAGGCC [hsa-miR-3180-3p] | 0.481% |
| UAUUGCACUCGUCCCGGCCUCC [hsa-miR-92b-3p] | 2.75% |
| GCCUGGAGCUACUCCACCAUCUC [hsa-miR-4254] | 11.1% |
| UUGUUCUCAAACUGGCUGUCAGA [hsa-miR-7156-5p] | 25.8% |
| UAGAGAGGGGAAGGAUGUGAUGU [hsa-miR-6758-5p] | -13.9% |
| CUGCAAAGGGAAGCCCUUUC [hsa-miR-527] | -41.4% |
| GAAGUUGUUCGUGGUGGAUUCG [hsa-miR-382-5p] | -18.5% |
| GACAGAGUGCCACUUACUGAA [hsa-miR-4797-5p] | -25.1% |
| ACAUCCUGCUCCACAGGGCAGAGG [hsa-miR-4793-5p] | -0.984% |
| UCUGUGCUACUGGAUGAAGAGU [hsa-miR-7157-3p] | 36.4% |
| CUGCCCUAGUCUAGCUGAAGCU [hsa-miR-3157-3p] | 27.8% |
| GCUGGUUUCAUAUGGUGGUUUAGA [hsa-miR-29b-1-5p] | 38.2% |
| AGGGGGGCACUGCGCAAGCAAAGCC [hsa-miR-6885-5p] | -29.8% |
| GAACGCCUGUUCUUGCCAGGUGG [hsa-miR-614] | -0.465% |
| ACUGGCAGAACACUGAAGCAGC [hsa-miR-6868-5p] | -21.7% |
| ACCCUCGUCAGGUCCCCGGGG [hsa-miR-4655-3p] | 6.66% |
